Reference: patent publication US20130004519A1

Columns and labels:
[1] = target: His-tagged human tenascin-C (human) (UniProt P24821); test: pull-down from HEK293 conditioned medium on tenascin-C-Sepharose 4B, nanoLC-MSMS; listed as background protein (control column score 833)
[2] = target: horse fibronectin coupled to CNBr-activated Sepharose 4B (horse) (UniProt Q28377); test: pull-down from HEK293 conditioned medium on horse fibronectin-Sepharose 4B, nanoLC-MSMS; listed as background protein (control column score 833)
[3] = target: His-tagged human tenascin-C (human) (UniProt P24821); test: pull-down from HEK293 conditioned medium on tenascin-C-Sepharose 4B, nanoLC-MSMS; listed as background protein (control column count 32)
[4] = target: horse fibronectin coupled to CNBr-activated Sepharose 4B (horse) (UniProt Q28377); test: pull-down from HEK293 conditioned medium on horse fibronectin-Sepharose 4B, nanoLC-MSMS; listed as background protein (control column count 32)
[5] = target: His-tagged human tenascin-C (human) (UniProt P24821); test: pull-down from HEK293 conditioned medium on tenascin-C-Sepharose 4B, nanoLC-MSMS
[6] = target: His-tagged human tenascin-C (human) (UniProt P24821); test: pull-down on tenascin-C-Sepharose 4B, multiple reaction monitoring
[7] = target: His-tagged human tenascin-C (human) (UniProt P24821); test: pull-down on tenascin-C-Sepharose 4B, spectral counting normalized to background proteins
[8] = target: horse fibronectin coupled to CNBr-activated Sepharose 4B (horse) (UniProt Q28377); test: pull-down from HEK293 conditioned medium on horse fibronectin-Sepharose 4B, nanoLC-MSMS
[9] = target: horse fibronectin coupled to CNBr-activated Sepharose 4B (horse) (UniProt Q28377); test: pull-down from HEK293 conditioned medium on horse fibronectin-Sepharose 4B, nanoLC-MSMS; listed as background protein (control column score 720)
[10] = target: His-tagged human tenascin-C (human) (UniProt P24821); test: pull-down from HEK293 conditioned medium on tenascin-C-Sepharose 4B, nanoLC-MSMS; listed as background protein (control column count 44)
[11] = target: horse fibronectin coupled to CNBr-activated Sepharose 4B (horse) (UniProt Q28377); test: pull-down from HEK293 conditioned medium on horse fibronectin-Sepharose 4B, nanoLC-MSMS; listed as background protein (control column count 44)
[12] = target: His-tagged human tenascin-C (human) (UniProt P24821); test: pull-down from HEK293 conditioned medium on tenascin-C-Sepharose 4B, nanoLC-MSMS; listed as background protein (control column score 720)

Chain of His-tagged human tenascin-C (human) (P24821 23-2201): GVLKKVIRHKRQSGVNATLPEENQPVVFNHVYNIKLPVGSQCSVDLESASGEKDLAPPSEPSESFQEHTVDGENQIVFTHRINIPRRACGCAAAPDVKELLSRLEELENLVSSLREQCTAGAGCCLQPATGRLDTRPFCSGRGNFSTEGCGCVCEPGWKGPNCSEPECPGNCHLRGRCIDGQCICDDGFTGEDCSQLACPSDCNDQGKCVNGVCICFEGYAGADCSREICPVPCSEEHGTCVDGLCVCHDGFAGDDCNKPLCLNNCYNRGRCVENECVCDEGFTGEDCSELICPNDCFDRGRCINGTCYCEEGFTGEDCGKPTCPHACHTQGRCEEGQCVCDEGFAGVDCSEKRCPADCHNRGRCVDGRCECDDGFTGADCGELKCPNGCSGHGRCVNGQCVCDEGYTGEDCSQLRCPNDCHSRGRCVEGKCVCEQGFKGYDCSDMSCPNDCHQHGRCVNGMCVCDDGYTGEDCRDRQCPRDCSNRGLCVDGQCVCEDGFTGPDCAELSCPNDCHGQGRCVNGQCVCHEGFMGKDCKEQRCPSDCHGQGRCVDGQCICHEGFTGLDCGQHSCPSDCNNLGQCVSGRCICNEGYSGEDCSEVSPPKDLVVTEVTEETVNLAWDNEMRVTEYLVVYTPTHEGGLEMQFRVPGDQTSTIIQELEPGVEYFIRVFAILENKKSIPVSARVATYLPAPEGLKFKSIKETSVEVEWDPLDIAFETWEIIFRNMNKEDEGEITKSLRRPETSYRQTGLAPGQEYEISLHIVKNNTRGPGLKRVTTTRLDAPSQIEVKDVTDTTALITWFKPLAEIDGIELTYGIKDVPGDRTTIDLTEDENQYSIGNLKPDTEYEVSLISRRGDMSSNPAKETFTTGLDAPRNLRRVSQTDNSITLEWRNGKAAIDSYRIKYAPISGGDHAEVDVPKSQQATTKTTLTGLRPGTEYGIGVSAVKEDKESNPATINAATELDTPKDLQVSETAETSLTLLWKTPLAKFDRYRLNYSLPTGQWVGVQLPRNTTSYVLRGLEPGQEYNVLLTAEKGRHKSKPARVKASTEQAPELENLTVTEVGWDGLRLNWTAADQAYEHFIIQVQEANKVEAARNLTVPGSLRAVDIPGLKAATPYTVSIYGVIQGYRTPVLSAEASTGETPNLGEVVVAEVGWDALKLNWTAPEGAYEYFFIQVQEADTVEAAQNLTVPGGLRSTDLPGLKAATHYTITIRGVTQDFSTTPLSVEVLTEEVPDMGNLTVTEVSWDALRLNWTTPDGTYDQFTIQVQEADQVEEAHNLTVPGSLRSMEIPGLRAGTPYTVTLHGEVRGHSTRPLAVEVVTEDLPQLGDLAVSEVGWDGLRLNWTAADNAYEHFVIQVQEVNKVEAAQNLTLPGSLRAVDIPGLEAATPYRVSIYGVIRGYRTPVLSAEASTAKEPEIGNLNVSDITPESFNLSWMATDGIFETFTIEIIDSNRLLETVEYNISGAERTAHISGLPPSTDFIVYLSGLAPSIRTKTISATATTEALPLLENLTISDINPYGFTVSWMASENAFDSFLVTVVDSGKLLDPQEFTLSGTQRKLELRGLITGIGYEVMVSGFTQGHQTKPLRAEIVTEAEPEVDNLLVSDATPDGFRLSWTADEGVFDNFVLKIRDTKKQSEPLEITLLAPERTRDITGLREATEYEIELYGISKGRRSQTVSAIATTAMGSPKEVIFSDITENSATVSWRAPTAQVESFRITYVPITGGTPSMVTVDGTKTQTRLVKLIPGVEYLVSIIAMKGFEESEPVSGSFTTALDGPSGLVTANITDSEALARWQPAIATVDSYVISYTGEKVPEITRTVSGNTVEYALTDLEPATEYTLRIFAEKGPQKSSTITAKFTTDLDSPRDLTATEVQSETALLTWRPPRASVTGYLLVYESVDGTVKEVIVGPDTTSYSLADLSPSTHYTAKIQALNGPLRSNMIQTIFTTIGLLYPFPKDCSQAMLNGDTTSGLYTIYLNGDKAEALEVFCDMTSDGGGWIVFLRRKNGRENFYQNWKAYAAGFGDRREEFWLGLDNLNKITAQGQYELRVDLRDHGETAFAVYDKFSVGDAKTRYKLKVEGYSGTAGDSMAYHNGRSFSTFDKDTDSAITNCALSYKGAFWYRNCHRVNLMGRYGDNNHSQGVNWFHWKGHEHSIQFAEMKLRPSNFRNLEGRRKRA
Chain of horse fibronectin coupled to CNBr-activated Sepharose 4B (horse) (Q28377 32-2477 limits assumed): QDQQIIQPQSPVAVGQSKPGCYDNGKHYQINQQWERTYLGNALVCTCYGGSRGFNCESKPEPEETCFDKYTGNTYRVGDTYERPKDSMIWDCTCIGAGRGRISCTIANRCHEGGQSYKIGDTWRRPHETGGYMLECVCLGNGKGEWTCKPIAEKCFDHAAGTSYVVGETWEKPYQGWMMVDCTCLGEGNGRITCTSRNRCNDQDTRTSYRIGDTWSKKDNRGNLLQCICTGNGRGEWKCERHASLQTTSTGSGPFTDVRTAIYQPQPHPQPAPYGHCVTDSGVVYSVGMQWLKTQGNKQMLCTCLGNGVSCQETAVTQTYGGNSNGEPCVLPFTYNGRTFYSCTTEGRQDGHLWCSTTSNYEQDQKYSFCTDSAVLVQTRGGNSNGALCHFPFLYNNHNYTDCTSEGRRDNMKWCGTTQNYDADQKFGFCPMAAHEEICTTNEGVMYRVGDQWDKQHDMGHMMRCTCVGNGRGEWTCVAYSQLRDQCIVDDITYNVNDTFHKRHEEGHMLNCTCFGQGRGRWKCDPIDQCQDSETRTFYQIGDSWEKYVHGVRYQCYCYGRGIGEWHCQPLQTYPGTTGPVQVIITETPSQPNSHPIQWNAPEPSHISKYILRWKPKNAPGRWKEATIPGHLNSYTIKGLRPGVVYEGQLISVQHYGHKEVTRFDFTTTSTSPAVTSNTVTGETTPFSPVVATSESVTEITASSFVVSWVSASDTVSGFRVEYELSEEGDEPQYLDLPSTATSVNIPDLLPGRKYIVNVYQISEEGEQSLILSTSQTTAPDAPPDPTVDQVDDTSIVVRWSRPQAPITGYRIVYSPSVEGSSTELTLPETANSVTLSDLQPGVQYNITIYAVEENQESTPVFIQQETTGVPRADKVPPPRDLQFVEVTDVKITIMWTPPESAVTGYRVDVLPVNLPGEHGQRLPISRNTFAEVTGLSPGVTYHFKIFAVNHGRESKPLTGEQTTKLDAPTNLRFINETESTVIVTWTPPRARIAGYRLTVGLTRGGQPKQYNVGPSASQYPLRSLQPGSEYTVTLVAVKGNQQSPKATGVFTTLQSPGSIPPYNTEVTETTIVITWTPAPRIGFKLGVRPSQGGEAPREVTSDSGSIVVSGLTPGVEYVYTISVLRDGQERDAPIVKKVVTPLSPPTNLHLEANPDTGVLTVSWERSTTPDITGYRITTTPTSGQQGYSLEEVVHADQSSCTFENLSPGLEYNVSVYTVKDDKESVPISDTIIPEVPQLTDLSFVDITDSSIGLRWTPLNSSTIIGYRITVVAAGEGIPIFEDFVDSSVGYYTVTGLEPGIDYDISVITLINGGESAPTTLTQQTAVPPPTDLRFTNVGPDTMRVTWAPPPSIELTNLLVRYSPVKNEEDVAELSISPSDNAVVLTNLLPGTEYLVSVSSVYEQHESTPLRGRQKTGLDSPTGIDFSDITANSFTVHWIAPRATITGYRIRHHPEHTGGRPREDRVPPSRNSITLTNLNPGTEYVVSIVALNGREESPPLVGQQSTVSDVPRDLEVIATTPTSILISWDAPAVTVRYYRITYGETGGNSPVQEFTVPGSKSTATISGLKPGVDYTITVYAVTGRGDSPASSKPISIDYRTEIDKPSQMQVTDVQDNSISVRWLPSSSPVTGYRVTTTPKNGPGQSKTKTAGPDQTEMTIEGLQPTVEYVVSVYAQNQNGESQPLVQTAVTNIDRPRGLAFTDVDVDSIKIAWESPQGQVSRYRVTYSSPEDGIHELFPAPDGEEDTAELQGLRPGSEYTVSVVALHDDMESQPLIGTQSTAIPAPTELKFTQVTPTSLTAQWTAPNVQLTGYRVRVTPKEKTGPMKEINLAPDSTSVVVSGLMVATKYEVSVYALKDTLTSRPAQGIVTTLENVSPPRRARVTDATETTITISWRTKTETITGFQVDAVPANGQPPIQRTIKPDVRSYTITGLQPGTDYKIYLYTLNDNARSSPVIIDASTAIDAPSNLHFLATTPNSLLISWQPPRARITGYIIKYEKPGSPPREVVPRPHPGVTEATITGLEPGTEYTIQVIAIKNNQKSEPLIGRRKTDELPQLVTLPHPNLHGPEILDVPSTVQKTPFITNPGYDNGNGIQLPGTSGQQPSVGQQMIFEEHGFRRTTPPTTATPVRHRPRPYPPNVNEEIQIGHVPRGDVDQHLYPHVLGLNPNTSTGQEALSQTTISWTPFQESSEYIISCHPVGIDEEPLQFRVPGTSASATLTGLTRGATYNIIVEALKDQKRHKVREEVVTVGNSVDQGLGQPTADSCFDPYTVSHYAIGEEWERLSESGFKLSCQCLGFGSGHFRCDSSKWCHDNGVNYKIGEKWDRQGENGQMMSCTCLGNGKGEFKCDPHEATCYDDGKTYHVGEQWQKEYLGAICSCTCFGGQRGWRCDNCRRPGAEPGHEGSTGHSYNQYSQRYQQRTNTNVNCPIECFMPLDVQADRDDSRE

| Substance | MASCOT Score (tenascin-C) [5] | spectrum count (tenascin-C) [5] | normalized enrichment (MRM), tenascin-C against control [6] [fold] | normalized enrichment (spectrum count), tenascin-C against control [7] [fold] | further results |
| --- | --- | --- | --- | --- | --- |
| alpha-enolase (ENOA) from HEK293 conditioned medium (from UniProt P06733 2-434) (enzyme) | – | – | – | – | MASCOT Score (tenascin-C) [1]: 1040; MASCOT Score (fibronectin) [2]: 701; spectrum count (tenascin-C) [3]: 42; spectrum count (fibronectin) [4]: 26 |
| Phosphoglycerate kinase 1 (from UniProt P00558 2-417) (enzyme) | 402 | 26 | 1.2 | 3.3 | – |
| Fibronectin from HEK293 conditioned medium, P02751 32-2477 | 544 | 25 | 4.8 | 19.2 | – |
| Fibronectin from HEK293 conditioned medium (from UniProt P02751 32-2477) | – | – | – | – | MASCOT Score (fibronectin) [8]: 2210; spectrum count (fibronectin) [8]: 135 |
| Peptidyl-prolyl cis-trans isomerase A (PPIA) from HEK293 conditioned medium (from UniProt P62937 2-165) (enzyme) | – | – | – | – | MASCOT Score (fibronectin) [9]: 676; spectrum count (tenascin-C) [10]: 56; spectrum count (fibronectin) [11]: 36; MASCOT Score (tenascin-C) [12]: 675 |

Now from value to substance, other results behind:

| MASCOT Score (tenascin-C) [5] | spectrum count (tenascin-C) [5] | normalized enrichment (MRM), tenascin-C against control [6] [fold] | normalized enrichment (spectrum count), tenascin-C against control [7] [fold] | Substance | further results |
| --- | --- | --- | --- | --- | --- |
| 437 | 15 | 2.2 | 5.8 | Nidogen-2 (from UniProt Q14112 31-1375) | – |
| 258 | 11 | 2.1 | 4.2 | Clusterin (from UniProt P10909 23-449) | – |
